For the assay, the target named is RGY-hIgG1-34-1-2S (mouse | human | not stated). Kind of assay: negative stain electron microscopy; antibody in solution diluted to 0.01 mg/ml in 25 mM HEPES, 100 mM NaCl, on carbon-coated grids, 0.75% uranyl formate.

B1: RGY-hIgG1-34-1-2S (antibody, V domains shown)
VH: EVQLQQSGAEFVRPGASVKLSCTASGFNLKDDYMFWVKQRPEQGLEWIGWIAPDNGDTEYASKFQGKATITADTSSNTAYVQLSSLTSEDTAVYYCTTWGYYSYVNYWGQGTTLTVSS
VL: DIQMTQSPSSLSASLGERVSLTCRASQDIGSNLNWLQQEPDGTIKRLIYATYSLDSGVPKRFSGSRSGSDYSLTISSLESEDFVDYYCLQYASSPYTFGGGTKLEIK
With B1, the stoichiometry N (usually a count of units in the complex or per binding partner) was determined as 6.

These data come from doi:10.1101/2024.01.24.577129.
